Molecular target: T1, MmNAC17 (Malus micromalus, UniProt D9ZJ94 1-336)
T1 sequence: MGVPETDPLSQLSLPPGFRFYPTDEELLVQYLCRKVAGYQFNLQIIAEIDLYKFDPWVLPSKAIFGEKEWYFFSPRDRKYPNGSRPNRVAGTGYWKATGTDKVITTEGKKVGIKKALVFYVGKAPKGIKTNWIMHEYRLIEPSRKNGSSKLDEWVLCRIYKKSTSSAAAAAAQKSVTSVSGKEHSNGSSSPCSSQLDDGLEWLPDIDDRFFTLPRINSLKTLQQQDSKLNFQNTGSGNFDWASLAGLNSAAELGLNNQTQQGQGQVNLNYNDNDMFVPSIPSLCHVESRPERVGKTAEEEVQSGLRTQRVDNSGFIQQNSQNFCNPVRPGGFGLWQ
Assay: EMSA; binding disrupted by unlabeled competitor (100x); Chemiluminescence EMSA kit (Beyotime); binding buffer, salt, pH and temperature not stated
Settings: protein: recombinant; tags: His (pET-30a, Ni-NTA purified); chain copies: 2; blunt

| Binder | binding result |
| --- | --- |
| proMmLAR probe (dsDNA) DNA 1: GAAGATATCACACGTAGCCAAAAGCG DNA 2: CGCTTTTGGCTACGTGTGATATCTTC | binds |
| proMmF3H probe (dsDNA) DNA 1: AGGTGAAGATCACGTGGCGCAATTTC DNA 2: GAAATTGCGCCACGTGATCTTCACCT | binds |

— publication PMC11783756, “Sorbitol induces flavonoid accumulation as a secondary signal via the nanoencapsulated SPc/lncRNA809-MmNAC17 module against Alternaria alternata in Malus micromalus”
